One assay addresses T1, PucA-LH2 (Rhodopseudomonas palustris, UniProt P35101+P35106+Q6N9P5).
T1 construct: gene pucAA; native nonameric LH2 complex purified in LDAO from a Rps. palustris mutant with only pucBAa; α9β9γ1; alpha Met1 modelled as Cxm; last nine alpha residues untraced
The assay is described as follows: cryo-EM structure of the complex, […] Å. Format: binding. To be noted: 9 per complex, between alpha and beta chains; noncovalent.

In assay [1] the target is PucA-LH2 α-polypeptide (α-apoprotein encoded by the pucBAa gene pair) (Rhodopseudomonas palustris). In words: cryo-EM structure; single-particle cryo-EM of native LH2 complexes purified from intracytoplasmic membranes of single-pucBA deletion strains, in 0.1% LDAO, 20 mM Tris-Cl pH 8.0; C1 maps with relaxed C9 symmetry; γ encloses six of the nine α/β-heterodimers.
For assay [2], the target named is PucB-LH2 α-polypeptide (α-apoprotein encoded by the pucBAb gene pair) (Rhodopseudomonas palustris). Described as above.
Assay [3] has as its target PucD-LH2 α-polypeptide (α-apoprotein encoded by the pucBAd gene pair) (Rhodopseudomonas palustris). The description is as above.
The target of assay [4] is PucE-LH2 α-polypeptide (α-apoprotein encoded by the pucBAe gene pair) (Rhodopseudomonas palustris). The assay is described as above.

T1 sequence (P35101 whole entry): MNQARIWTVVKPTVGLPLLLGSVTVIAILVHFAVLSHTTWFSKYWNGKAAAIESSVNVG
T1 sequence (P35106 2-47 limits assumed): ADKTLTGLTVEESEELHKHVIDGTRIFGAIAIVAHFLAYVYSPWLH
T1 sequence (Q6N9P5 1-97): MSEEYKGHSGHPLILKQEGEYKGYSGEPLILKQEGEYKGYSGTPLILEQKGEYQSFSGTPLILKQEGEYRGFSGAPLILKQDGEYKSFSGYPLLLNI

Consider `CC(C)=CCC/C(C)=C/C=C/C(C)=C/C=C/C(C)=C/C=C/C=C(C)/C=C/C=C(C)/C=C/C=C(\C)CCCC(C)(C)O` [rhodopin], for which the “cryo-EM structure of the complex, 2.7 Å” value on PucA-LH2 was “A carotenoid, rhodopin, is sandwiched between α- and β-polypeptides”. “PucA-LH2 α-polypeptide (α-apoprotein encoded by the pucBAa gene pair) (natural protein)” returned a stoichiometry N in assay [1] of 9. With “PucB-LH2 α-polypeptide (α-apoprotein encoded by the pucBAb gene pair) (natural protein)”, the stoichiometry N in assay [2] came to 9. “PucD-LH2 α-polypeptide (α-apoprotein encoded by the pucBAd gene pair) (natural protein)” had a stoichiometry N in assay [3] of 9. Regarding “PucE-LH2 α-polypeptide (α-apoprotein encoded by the pucBAe gene pair) (natural protein)”, in assay [4], the stoichiometry N came to 9.

By stoichiometry N is commonly meant the number of molecules, sites or subunits per partner or assembly.

The values are drawn from publication PMC9618040, “Cryo-EM structures of light-harvesting 2 complexes from Rhodopseudomonas palustris reveal the molecular origin of absorption tuning” (Proceedings of the National Academy of Sciences of the …, 2022).
